Molecular target: T1, Clp-protease subunit R (ClpR) from Synechococcus sp. (Synechococcus sp., UniProt Q9L4P4 1-228)
T1 construct: ClpR, Clp-protease subunit R, Synechococcus sp., UniProtKB Q9L4P4; Stood in the crosslinked ClpCP3R complex; also called R-subunit; source: part of the Synechococcus ClpCP3R complex, obtained as described previously according to [20]
T1 sequence (looked up): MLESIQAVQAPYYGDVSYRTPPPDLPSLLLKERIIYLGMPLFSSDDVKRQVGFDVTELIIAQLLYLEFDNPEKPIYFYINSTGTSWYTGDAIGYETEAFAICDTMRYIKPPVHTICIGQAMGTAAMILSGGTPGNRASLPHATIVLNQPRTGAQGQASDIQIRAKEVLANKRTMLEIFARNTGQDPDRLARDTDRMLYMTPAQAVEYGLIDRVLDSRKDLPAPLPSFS
Test: cross-linking; Clp-protease multisubunit complex (ClpCP3R) crosslinked with H12/D12 BS3; tryptic digest separated into 192 fractions, LC-MALDI-TOF/TOF, FINDX (7 ppm, intensity parameter 0.22), MSMS validation
Settings: both partners purified

binding result: binds
B1: Clp-protease subunit P3 (ClpP3) from Synechococcus sp. (natural protein, UniProt Q9L4P3 1-199, looked up)
chain: MPIGVPSVPYRLPGSSFERWIDIYNRLAMERIIFLGQEVTDGLANSIVAQLLYLDSEDSSKPIYLYINSPGGSVTAGMAIYDTMQYIKSPVITICLGLAASMGAFLLCAGSKGKRLALPHSRIMIHQPLGGTGRRQASDIEIEAKEILRIKKLLNQIMADRTGQPLEKIEKDTDRDYFMSAEEAREYGLIDQVIAERPV
notes: ClpP3, Clp-protease subunit P, Synechococcus sp., UniProtKB Q9L4P3; Stood in the crosslinked ClpCP3R complex (P3 and R in a proteolytic core of two heptameric rings, ClpC in a hexameric ring); also called P3-subunit; source: part of the Synechococcus ClpCP3R complex, obtained as described previously according to [20]; not shown: His6, C-terminal, kept

Reference: PMC3377668, “Detection of Crosslinks within and between Proteins by LC-MALDI-TOFTOF and the Software FINDX to Reduce the MSMS-Data to Acquire for Validation” (PLoS ONE, 2012)
